This series can be described thus: soluble on expression in E. coli; label from the status in PepcDB or PDB records.
Consider “MAHHHHHHMHACVAAIAMGEVGVYDDQRSSGQEISLAAAAAAGVQYARSSRTAFSCTSKSARQGGGGAVPIENLLPPLIEQPEKSLRAARGDTGAAITEDERAAIAMETWEHYMATAREATSAEGASMMPSATAAATMMSSASCANAAHSCTSAVAAEAPLVPIRSFPDALCALIERCTATPLVCLTLSDQQCQTTAVRDLLRALLTIMQRIEDSAVAAIDCEIALASHSSSSGHHTPVAATAALDLQAVRLAAVKGISRVLTTYLDGADGSAQPPTKASETFTAGLGHLDILSVFEDVVHQWAHVLTVLERGKELIGASAGVGKGSDVKAEDDLSGVPESPQGHRSGKDGTGAAAQLHWVLRIAYQIIAAEQREASRGSAEAAPRVRLLPPLLVPVALRTLSLITTVIPLVCRPASYVQLCVDVLWGASLLTPSESSRQLMYGSMGVAGLAGASNGSCEGEADVSRGAEASPPAMDLFLALLHQFNEGHSAAHRELRDDLVCLFAFLLRCDIQYVENKLVAQSCRAEWSPTNVFGVNSAVSPPPRLRSKLTPRRSISTSPLWRRSTLWRRCCSRQRAGPNSQRRCTRPQPQPQRRFSPPTSIEANLLR”, for which the “soluble on expression in E. coli” value is given as “not soluble”.
As for “MAHHHHHHMHMFTNDWKSILAPLKSCRIKQQFDDREFLADFAMGLKLDFNNKYLVLDASTELLKFTAIESSDCCNRNCLPKMCIPINMKILTYGRELSRPDIVVEKDCSCTMLCLNRPTIKMYDFSNNNNKELIGTIKAPFSCCSYKFDLYDSAMRKIIYMDDTCCQLSILFPCPCGPFKFSNFFLRDAKTHEKVAHLQKEVPFLKFVKRDIDNYTLNFEQVQNPEWKMMLLAFSLFMDYIYYDRK”, the entry is “not soluble”.
Turning to “MAHHHHHHMHRRTLRRLQQVVQNPPVGSANIPSPYATEGGHVPIWSIVNGFVQKRNWVFRNPEWCDLCKEPVALWVNHHGRKDHALMDMHYTQMVEFPRRWNPEEILAVFLEELGLSVEAYQKYYGGYEREHRNELYAMLVALEEAKMLHFGEPRDTYLYRMQGGLRGMDHQGALVLHRYILGPFMRIYPNGHIQDYSNLVDFVTCAYNMETVYDLCGFYTLDKVALKADYKPSSPAALGLGGIAVHSSATHGFAQQAMEKPQQSPQPQPQRHMTVGTGGRSAADMEEEAFSRKAVFVRQLLGQLRWLTLPDEEHPAGHMFPQHLMFLGEICLKSLVAEIVAARLCEYMVRVEPVWRDHGYERVKLDVDKIMRKENDILPEPVKFFYRPMSPKMDDLYSTNRGNLDEALEKAVVAPVSGKGA”, the “soluble on expression in E. coli” value was “soluble”.
As for “MAHHHHHHMHSAALRRREEAAKSLAELEPEYAQIVADLPALEARKAAAEKEQEALWAELGMKQDESEAGLYESEFSDEATSCIRWCETGGCIGTGPRESHRDKSCSNVIDRDSSGYCECKTNDKKDEPEDDEEDVEPEAEGEGTEVRRGTVTYRFSSGHPRFTCMYVCDHSGEAGVDQQPEKLESFTILGELREASKSLERKKNRLEEVKGAMEAAKKLLSSPTITTEDLLRTLEKEEFTIDFQEYTYAIVMFDTVYQRDMGMTTGGNLLGLWKSFAENTYSVWAKDAHDLTQMIYDNGLKCWNGVVRNVEVHLVCGPENKLMTVEEPSMCNYRMVFETPAMCDD”, the entry is “soluble”; as for “MAHHHHHHMHSVVPMSSYIHPTQVSIGAAPRMAVQEMHPDAKRKGRRVVATMELKPGNAIFAAPPDIAVLYSPFARHICARCLVADVRACAEPLKAHHHHHQHPHQQPHATLSRSPVGASSSPSSLSSSTAAPAAAPVRPYCCPNCDQFVLCAPCVAQLLLDSGVDVTSAAGTDAVQTTAPLLQRRGEGKRGVSVVDERLHLHPLLRAHAISCAWYTSLPASIRAPGNDTDFLRFCLDYGARAYLGDTAMMRALATLDTNASVQSKESMQLCEVFARDRVVATFGKEPKAVTATTLATAASAKHMGIDPLSNQAGTHASGGIHRGGNSDGVRCRGSAAVSPFPPRYPISWTDLRDTLLRTRCNSIGFPYNTEETTGWSLHQTVCMLNHSCVPNAAVIMLYDSADAMAAAAALAARTGASHTAPPKERTQEAARRKASERIAAFRAVATSSESPYSTSYSPSLAGWIGIEATRPIAAGEEITISYVDLGSLGDDLQTRSRHLLEQYRFLCTCELCMRQRSLKR”, “not soluble”; as for “MAHHHHHHMHVQARYQRITEAYAVLSDPEKRRAYDAKHGVNFQSRLARLQTVIGHHNTMATQRSTTSCKTACLASTSSPTTDEHDAQHLHAASHKDSAERTVGDDDDEDYDPNDVLAPPRGAPHQGRSSDFYSDDSRDAHGEGDYIARLFSLHLRVGAEAAPKTRNGVPVVQYQAITLTRAYSPPESPYARTWGLVFKKNELVDLDGENLEELARITGLAAVPFPSVVQQINYTMAGTDDRLAAPAISALRIRVHTGLSGEPCHGPNGVDQY”, “not soluble”.
As for “MAHHHHHHMIDDVRICHLVLQDVKERLPLYESRLEAVNNSHVVISCWNESVKAFVPVPVAEDVEFTSDVLHEVVSLVDGLRQLGCTDFFVVFVDSGGTLSFYHVDTLRLLQSGRSGSS”, the entry is “not soluble”; as for “MAHHHHHHMIFRFYSKLYKHQCAYKNILYNKYHIEKKLEYFYDSIKKNNYSTLYGIKKNDLLNIKKNSGEFLLLSDIFMIKQNNLFLLNNVRRNFYYNTNIIKGIYNDSLFYYDKKYFSGRSGGLKRKKKRKEERIVNTGSAKRLEFFYPKKKRRQRIGLIQNSRKNIVYDNIFKRFLVYHYKQGIQVFRSFSCKKKRNFEAARNKAIILSNQYNKRFNKHNMNDQQRKDTKNIPLNVMDSNLIAKYNNELIKQIKIIPDKNKSGYRGVFYEPSYHAYICIYNEAGVRKFQIFKIQNNDYLEAYHLALMCRRYKLFKNYQFVFQRNRIRSGRIPLK”, “not soluble”; as for “MAHHHHHHMIKRYLKIYPSIYFTKHVYTAPEIDGSKDLLKKDYVFNQYVNKKEIFLNNKLKKGNCENEIKRIYYFKLWNAMVEHNFTLFENIIQQYLNEGYKYDEVIYSIMTHAYILNHKKKNENAYLVIEEMKRAFMHPIIIKINERMINCFLELELIFCEPSKSLWINVCRFIWESSIKLNRERRRKLKEKLNLLEPNQVLKLTKEDVKKLVKKEYEETLLSMMDTLSLDGEDPYDHILIDRKENYMKIENQKDGNFFPSNGNELTCLNNNHIYNDHINYLKGNIENDTSENVNSFMFSILNEGKNKTTEQEINYQDDYNLNNNDYMTKITNINSDNNIMMNMENEHMYETDEKDEHYESFDDAEDFDIQLLKKYYNLK”, “not soluble”.
For “MAHHHHHHMIRINENSKMSSNLSNENEVTYEKNNNIKNKLEEKYKNFLKLKNMNSHMGASQNMNVNNNYTMNELEEFEKINNNYNNNNNNINNNINNYYDYMNIKVSQSVQHNKRLQDFYNNKNSFQHYIKKLKTCRFDADDIRNLLEKRLAYERDNTLIKNIQEEENKKGIGINGNFGSESNSSSSNYDNNYLLYRKINRLNKTNTNKSKNRSRKRKRINSKIDKKYIIKCRACKFINPNGFKIEDYYTCQNCGYNDFSVIRSTSPNNAD” the value was “not soluble”; for “MAHHHHHHMKMISFNVFRHVESPACCPPASFVADLSITSKKNTHKHLLSFFIFPLFLESLSVMLPTQKPVLFTPGPLMTSDTVKEAMLTDYASRDIRFVQAVKFIREELISVAGLDPQKWACILQQGSGSMGIEAAISTIFPRTGGKFLLINSGKYSEKQACVVKRLQFPMVMLKMGEGEELKMSALESIIRANPDITTVGFVHHETSTGMLYPAEQIAEVVRRELPKAKIIIDGISAFGGIPCDYEKACDVLVAAPNKCLHSVPGISIILARRLLIEAAKGCARSATLDLSMQLMSFDKSGQFAVTPPVHVVMALQQALVEYKRDGGLSGRQKTYQAKAQLVREAVKAMGFTLFLGESKPSCANVVVCVNMPRDPRWNFKRFYTYLNERGLIIYPGKASHAETFRFGIIGHTSLANCERLMKCAKEALKSMGIDHLQRKSNM”, “not soluble”.
With “MAHHHHHHMKSLENNEMHNLCPIHYYFNGRDYNSDTIINNVNIKYFNMDNCLGNANLHMDYLNPVLNHPTKIEHGKIKILILDAPTNDLLPLYIKEMKNYNVTDLVRTCERTYNDGEIQDAGINVHELIFPDGDAPTEDIVSNWLNIVNNVIKNNCAVAVHCVAGLGRAPVLASIVLIEFGMDPIDAIVFIRDRRKGAINKRQLQFLKEYRKKKKKKNCLRKCHFM”, the “soluble on expression in E. coli” value was “not soluble”.
As for “MAHHHHHHMLAPTVTREACQPIINAFRCAAEKGQTQTDVDAESWGREVTRINAEAQKAWSEQRKPFIPAMYLRRRDPAAEEALRLLRVTSKAFELNLRFREIEKLDEMHAKLWALLSADKTRLTITIIEYMEILKKFKAWQEERFEGTPKASPQREASVQSSQECLDDTTPLGSVVYLASVMQPRPSLQLYLSCPRSPAGGVEVVHIYQRFAKQVSLVKCEAELIMWDTNNDGCLTEDEMESYVRDLVPRIEALRDITEDILPFYCCTVSRRIFWVLDPGSRGAIRIDMLLQNPVMDEWVSLQLMREDQPRNWFSAAITSHLYDKFLLLDTRNRGTLNADDMKRYKKGLPTVMDDGLPPGVGPLSSLFIDRFFETNVMMANSELDFRKFVDFVVAVEFLPSCQRPLFFWNILDIEGCGYLKPVHVNYFFRETHTKLVAAGLEVPSRETVVQEAFDLISTAEPLCISREEFINAPQAGLFVALLVDCLSFWTYENREQR”, the entry is “not soluble”; as for “MAHHHHHHMLHRIPAYRDPLLQVLSDALKRALDFYRREMSAGMSVEFECRLGTFSASKHTYAHPFPTHTLTPALLDGQSTTPFFFFAGVAQPSFIAAHETLKTIGASMPPRSSTVLSVRTVGKDRLEYAMNEACNSGHLLTIVEKERIFSHDVRCPGWGADFRVSVSREKTIDRETWNQAKWESFTPNISRLRQRKSVRIDPFLSVDMAMVRSFTDHSRFVRPWSPELQVPFISAPHVSFDVELEVNMPALHRVVKQTRLVESTLGRTALDLLTVLQFLAAKRE”, “not soluble”.
For “MAHHHHHHMLKVSSKEHYAEIKKKAEDSLGLVVHFSATWCEPCTAVNEHLTKQAAEYGDNVVFAEVDCGELGDVCEAEGVESVPFVAYFRTPLVGDDRRVERVADVAGAKFDQIDMNTHSLFGEKGGNRGSAEGLCHSGRLPALPHEAARGRNVHHRHPISSALRLYWSAV” the value was “not soluble”; for “MAHHHHHHMLMFCRVPEDTAVRISLDVKKHFVNTERTSITQAELENYIRCSMIAAGFAQEHAQLFSVVTQFHAERIPLVLFLAGPERCGKTTLAHLLAARINCSTVINAEVLRDISASIDDSLPLFAVPETSSPDSTPSMLRGAEVSAVVAAEVDKAVREGRAIIVEGENLSFAGFHRFLEPSFQLSTGAVILGLVMEICGGEAETDASHAYVQALPNLHPVYSTERLTVLAADIGDLAKGVRGIPTVYVARYTTVADNVCLSVFLHDIVVKRIIAELKRRGRVL”, “not soluble”.
As for “MAHHHHHHMLNVLCDIKRYNGFDYYKCPRTILKKTCNFVKRENVADSIFIGNEIEFFIFDKVNFGLDDYDSYLKVYDREAFSCKNGGSGGSAVGSGSHDTTAGVACIACAGHVPPNDDSKKVKKKCGYFATDPYDTSNMIKLRICRILNSLNVHVQKYHHEVSTSQHEISLKYFDAVKNADNLIITKQVIKSTVHNFNRTATFMPKPLVSDNGSGLHCNISLWKDNKNIFFADDPSTFFLSKEAFYFMNGIIKHAKALQAFCNSTMNSYKRLVPGFETCQKLFYSFGSRNAVIRLSMINYSNPSEKRIEFRLPDYANSPHLVLAAIILAGYDGIKSKEQPLVPFESKDNNFFISSIFSNYVENTQNFKTLTHALEGYDTIHDVKKSPEFVNFFTCKEPESICFSLEESLDALEKDHAFLTVDGIFTEVRFVGKCGEAPNTVDTYLPTYPCVLPFVLPICLPHLFSPFFPTAGSH”, the entry is “not soluble”.
